Source: US20110097323A1

Columns and labels:
[1] = biological target: CD16A F158 (human) (UniProt P08637); experiment: Table 3; relative to wild-type Fc; method not stated
[2] = biological target: CD32B (FcγRII-B) (UniProt P31994); experiment: as above
[3] = biological target: CD16A V158 (human) (UniProt P08637); experiment: as above
[4] = biological target: HER-2 (UniProt P04626); experiment: SPR (BIAcore 1000), HER-2 amine-coupled to chip, antibody injected at 6.25-200 nM

CD16A F158 (human), sequence (P08637 17-208 limits assumed): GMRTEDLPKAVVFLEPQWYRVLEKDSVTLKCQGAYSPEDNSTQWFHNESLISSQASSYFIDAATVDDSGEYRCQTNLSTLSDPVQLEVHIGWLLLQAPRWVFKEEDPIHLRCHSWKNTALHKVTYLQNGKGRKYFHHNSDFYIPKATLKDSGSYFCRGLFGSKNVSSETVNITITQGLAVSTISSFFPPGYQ
CD32B (FcγRII-B), sequence (P31994 43-217 limits assumed): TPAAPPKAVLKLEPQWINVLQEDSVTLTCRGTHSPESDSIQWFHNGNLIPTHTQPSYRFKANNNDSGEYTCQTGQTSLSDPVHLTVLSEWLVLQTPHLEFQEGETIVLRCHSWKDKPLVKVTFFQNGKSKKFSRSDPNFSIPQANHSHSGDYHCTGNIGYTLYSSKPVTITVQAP
CD16A V158 (human), sequence (P08637 17-208 F176V limits assumed): as the sequence (P08637 17-208 limits assumed) above, with F160V counted along it

Substance	binding relative to wild-type Fc (fold) [1]	binding relative to wild-type Fc (fold) [2]	binding relative to wild-type Fc (fold) [3]	koff [4]	kon [4]
Fc variant F243I R292P Y300L V305I P396L (from UniProt P01857 99-330)	3.12	1.05			
Fc variant V284M R292P K370N (from UniProt P01857 99-330)	1.37	0.37	1.14		
ch4D5 (antibody)				6.3e-06 s⁻¹	110000 M⁻¹ s⁻¹
Fc variant F243L R292P P300L (from UniProt P0DOX5 228-449)	2.3	0.32	6.69		
